Laboratory results reported in patent US8461305B2, “L-fucose α1→6 specific lectin” (J-Oil Mills, Inc., priority 2008, dated 2013).

Experiments:
[1] = frontal affinity chromatography (FAC), association constant to PA sugar chains having other L-fucose; assay type: binding; details: 25 degrees C.
Procedure, shortened: (§1)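 Lectin coupled via primary amines to NHS-activated sepharose in a miniature column, run in TBS (pH 7.4) at 0.125 ml/min and 25 degrees C. PA sugar chains (3.75 nM or 7.5 nM) applied in excess, with elution monitored by fluorescence (ex 310/em 380 nm). Ka calculated from front-end delay (V−Vo) versus PA rhamnose and effective ligand amount (Bt).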

[2] = frontal affinity chromatography (FAC), association constant to PA sugar chains without L-fucose; assay type: binding; details: 25 degrees C.
Procedure, shortened: as §1

B1: Pisum sativum agglutinin (protein)
chain: TETTSFLITKFSPDQQNLIFQGDGYTTKEKLTLTKAVKNTVGRALYSSPIHIWDRETGNVANFVTSFTFVINAPNSYNVADGFTFFIAPVDTKPQTGGGYLGVFNSAEYDKTTQTVAVEFDTFYNAAWDPSNRDRHIGIDVNSIKSVNTKSWKLQNGEEANVVIAFNAATNVLTVSLTYPNSLEEENVTSYTLSDVVSLKDVVPEWVRIGFSATTGAEYAAHEVLSWSFHSELSGTSSSKQAADA
- association constant Ka ([1]; Sugar chain No. 419): <1000 M⁻¹
- association constant Ka ([1]; Sugar chain No. 420): <1000 M⁻¹
- association constant Ka ([1]; Sugar chain No. 718): <1000 M⁻¹
- association constant Ka ([1]; Sugar chain No. 719): <1000 M⁻¹
- association constant Ka ([1]; Sugar chain No. 720): <1000 M⁻¹
- association constant Ka ([1]; Sugar chain No. 721): <1000 M⁻¹
- association constant Ka ([1]; Sugar chain No. 722): <1000 M⁻¹
- association constant Ka ([1]; Sugar chain No. 723): <1000 M⁻¹
- association constant Ka ([1]; Sugar chain No. 726): <1000 M⁻¹
- association constant Ka ([1]; Sugar chain No. 727): <1000 M⁻¹
- association constant Ka ([1]; Sugar chain No. 728 (as listed in Table 5/12)): <1000 M⁻¹
- association constant Ka ([1]; Sugar chain No. 729): <1000 M⁻¹
- association constant Ka ([1]; Sugar chain No. 730): <1000 M⁻¹
- association constant Ka ([1]; Sugar chain No. 731): <1000 M⁻¹
- association constant Ka ([1]; Sugar chain No. 739): <1000 M⁻¹
- association constant Ka ([1]; Sugar chain No. 909): <1000 M⁻¹
- association constant Ka ([1]; Sugar chain No. 910): <1000 M⁻¹
- association constant Ka ([1]; Sugar chain No. 931): <1000 M⁻¹
- association constant Ka ([1]; Sugar chain No. 932): <1000 M⁻¹
- association constant Ka ([1]; Sugar chain No. 933): <1000 M⁻¹
- association constant Ka ([2]; Sugar chain No. 001): <1000 M⁻¹
- association constant Ka ([2]; Sugar chain No. 002): <1000 M⁻¹
- association constant Ka ([2]; Sugar chain No. 003): 7800 M⁻¹
- association constant Ka ([2]; Sugar chain No. 004): <1000 M⁻¹
- association constant Ka ([2]; Sugar chain No. 005): 7400 M⁻¹
- association constant Ka ([2]; Sugar chain No. 006): 7100 M⁻¹
- association constant Ka ([2]; Sugar chain No. 007): 7800 M⁻¹
- association constant Ka ([2]; Sugar chain No. 008): 10000 M⁻¹
- association constant Ka ([2]; Sugar chain No. 009): 7900 M⁻¹
- association constant Ka ([2]; Sugar chain No. 010): <1000 M⁻¹
- association constant Ka ([2]; Sugar chain No. 011): <1000 M⁻¹
- association constant Ka ([2]; Sugar chain No. 012): 17000 M⁻¹
- association constant Ka ([2]; Sugar chain No. 013): <1000 M⁻¹
- association constant Ka ([2]; Sugar chain No. 014): 8600 M⁻¹
- association constant Ka ([2]; Sugar chain No. 101): <1000 M⁻¹
- association constant Ka ([2]; Sugar chain No. 103): <1000 M⁻¹
- association constant Ka ([2]; Sugar chain No. 104): <1000 M⁻¹
- association constant Ka ([2]; Sugar chain No. 105): <1000 M⁻¹
- association constant Ka ([2]; Sugar chain No. 107): <1000 M⁻¹
- association constant Ka ([2]; Sugar chain No. 108): <1000 M⁻¹
- association constant Ka ([2]; Sugar chain No. 301): <1000 M⁻¹
- association constant Ka ([2]; Sugar chain No. 304): <1000 M⁻¹
- association constant Ka ([2]; Sugar chain No. 305): <1000 M⁻¹
- association constant Ka ([2]; Sugar chain No. 307): 2400 M⁻¹
- association constant Ka ([2]; Sugar chain No. 308): <1000 M⁻¹
- association constant Ka ([2]; Sugar chain No. 313): <1000 M⁻¹
- association constant Ka ([2]; Sugar chain No. 314): <1000 M⁻¹
- association constant Ka ([2]; Sugar chain No. 323): <1000 M⁻¹
- association constant Ka ([2]; Sugar chain No. 501): <1000 M⁻¹
- association constant Ka ([2]; Sugar chain No. 502): <1000 M⁻¹
- association constant Ka ([2]; Sugar chain No. 503): <1000 M⁻¹
- association constant Ka ([2]; Sugar chain No. 504): <1000 M⁻¹
- association constant Ka ([2]; Sugar chain No. 701): <1000 M⁻¹
- association constant Ka ([2]; Sugar chain No. 702): <1000 M⁻¹
- association constant Ka ([2]; Sugar chain No. 703): <1000 M⁻¹
- association constant Ka ([2]; Sugar chain No. 704): <1000 M⁻¹
- association constant Ka ([2]; Sugar chain No. 705): <1000 M⁻¹
- association constant Ka ([2]; Sugar chain No. 706): <1000 M⁻¹
- association constant Ka ([2]; Sugar chain No. 707): <1000 M⁻¹
- association constant Ka ([2]; Sugar chain No. 708): <1000 M⁻¹
- association constant Ka ([2]; Sugar chain No. 709): <1000 M⁻¹
- association constant Ka ([2]; Sugar chain No. 710): <1000 M⁻¹
- association constant Ka ([2]; Sugar chain No. 711): <1000 M⁻¹
- association constant Ka ([2]; Sugar chain No. 712): <1000 M⁻¹
- association constant Ka ([2]; Sugar chain No. 713): <1000 M⁻¹
- association constant Ka ([2]; Sugar chain No. 715): <1000 M⁻¹
- association constant Ka ([2]; Sugar chain No. 716): <1000 M⁻¹
- association constant Ka ([2]; Sugar chain No. 717): <1000 M⁻¹
- association constant Ka ([2]; Sugar chain No. 724): <1000 M⁻¹
- association constant Ka ([2]; Sugar chain No. 725): <1000 M⁻¹
- association constant Ka ([2]; Sugar chain No. 728 (as listed in Table 7)): <1000 M⁻¹
- association constant Ka ([2]; Sugar chain No. 732): <1000 M⁻¹
- association constant Ka ([2]; Sugar chain No. 733): <1000 M⁻¹
- association constant Ka ([2]; Sugar chain No. 734): <1000 M⁻¹
- association constant Ka ([2]; Sugar chain No. 735): <1000 M⁻¹
- association constant Ka ([2]; Sugar chain No. 736): <1000 M⁻¹
- association constant Ka ([2]; Sugar chain No. 737): <1000 M⁻¹
- association constant Ka ([2]; Sugar chain No. 738): <1000 M⁻¹
- association constant Ka ([2]; Sugar chain No. 901): <1000 M⁻¹
- association constant Ka ([2]; Sugar chain No. 902): <1000 M⁻¹
- association constant Ka ([2]; Sugar chain No. 903): <1000 M⁻¹
- association constant Ka ([2]; Sugar chain No. 905): <1000 M⁻¹
- association constant Ka ([2]; Sugar chain No. 906): <1000 M⁻¹
- association constant Ka ([2]; Sugar chain No. 907): <1000 M⁻¹
